Values of other authors as cited in publication PMC3521240.
pKd: −log10 of the molar value.

Target: PTX3 (Homo sapiens) (UniProt P26022)
Sequence (P26022 18-381): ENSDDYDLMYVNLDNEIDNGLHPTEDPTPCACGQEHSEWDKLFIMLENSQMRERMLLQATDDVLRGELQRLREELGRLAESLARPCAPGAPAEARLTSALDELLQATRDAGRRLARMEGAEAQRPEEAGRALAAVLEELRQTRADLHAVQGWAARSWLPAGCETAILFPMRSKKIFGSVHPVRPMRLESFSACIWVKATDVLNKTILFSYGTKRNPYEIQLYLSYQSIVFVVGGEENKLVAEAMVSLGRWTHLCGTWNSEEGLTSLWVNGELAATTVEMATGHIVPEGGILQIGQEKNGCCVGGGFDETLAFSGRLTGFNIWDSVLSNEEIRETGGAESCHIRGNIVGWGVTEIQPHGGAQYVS

Sequence of AZU1 (P20160 27-248): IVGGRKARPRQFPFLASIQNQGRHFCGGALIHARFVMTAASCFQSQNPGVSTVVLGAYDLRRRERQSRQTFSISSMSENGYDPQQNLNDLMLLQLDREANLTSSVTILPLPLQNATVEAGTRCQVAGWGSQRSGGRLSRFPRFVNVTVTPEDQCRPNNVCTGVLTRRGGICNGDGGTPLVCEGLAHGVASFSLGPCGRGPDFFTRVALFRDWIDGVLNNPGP

Substance: AZU1 (from UniProt P20160)
- pKd: 7.66
